# Laboratory results as given in patent publication US20240018240A1 (Hoffmann-La Roche, published 2024).
# Positions count from the first letter of the chain named.
# B1: PLAP H2 CD3orig TCB (bispecific antibody, human IgG1, kappa, L234A L235A)
# heavy 1: not shown
# heavy 2: QVQLQESGPGLVKPSETLSLTCTVSGFSLTSYGVSWIRQPAGKGLEWIGVIWEDGSTNYHSALISRVTMSVDTSKNQFSLKLSSVTAADTAVYYCARPHYGSSYVGAMEYWGAGTTVTVSSASTKGPSVFPLAPSSKSTSGGTAALGCLVEDYFPEPVTVSWNSGALTSGVHTFPAVLQSSGLYSLSSVVTVPSSSLGTQTYICNVNHKPSNTKVDEKVEPKSCDKTHTCPPCPAPEAAGGPSVFLFPPKPKDTLMISRTPEVTCVVVDVSHEDPEVKFNWYVDGVEVHNAKTKPREEQYNSTYRVVSVLTVLHQDWLNGKEYKCKVSNKALGAPIEKTISKAKGQPREPQVCTLPPSRDELTKNQVSLSCAVKGFYPSDIAVEWESNGQPENNYKTTPPVLDSDGSFFLVSKLTVDKSRWQQGNVFSCSVMHEALHNHYTQKSLSLSP
# light 1: DIQMTQSPSSLSASVGDRVTITCRASENIYSYVAWYQQKPGKAPKLLIYNAKSLASGVPSRFSGSGSGTDFTLTISSLQPEDFATYYCQHHYVSPWTFGGGTKLEIKRTVAAPSVFIFPPSDRKLKSGTASVVCLLNNFYPREAKVQWKVDNALQSGNSQESVTEQDSKDSTYSLSSTLTLSKADYEKHKVYACEVTHQGLSSPVTKSFNRGEC
# light 2: EVQLLESGGGLVQPGGSLRLSCAASGFTFSTYAMNWVRQAPGKGLEWVSRIRSKYNNYATYYADSVKGRFTISRDDSKNTLYLQMNSLRAEDTAVYYCVRHGNFGNSYVSWFAYWGQGTLVTVSSASVAAPSVFIFPPSDEQLKSGTASVVCLLNNFYPREAKVQWKVDNALQSGNSQESVTEQDSKDSTYSLSSTLTLSKADYEKHKVYACEVTHQGLSSPVTKSFNRGEC
# B2: PLAP H3 CD3orig TCB (bispecific antibody, human IgG1, kappa, L234A L235A)
# heavy 1: not shown
# heavy 2: B1 heavy 2 with A41P, H60N, S61P, A62S, I64K, M69I
# light 1: B1 light 1
# light 2: B1 light 2
# B3: PLAP H3 CD3opt TCB (bispecific antibody, human IgG1, kappa, L234A L235A)
# heavy 1: not shown
# heavy 2: B1 heavy 2 with A41P, H60N, S61P, A62S, I64K, M69I
# light 1: B1 light 1
# light 2: B1 light 2 with T28Q, T31S, G102T, N103T, G105P, N106S, W111Y, F112Y, A113G
# notes: 2+1 IgG CrossFab, inverted
# B4: PLAP H4 CD3orig TCB (bispecific antibody, human IgG1, kappa, L234A L235A)
# heavy 1: not shown
# heavy 2: B1 heavy 2 with F27G, L29I, A41P, M69I
# light 1: B1 light 1
# light 2: B1 light 2
# Molecular target: T1, Human CD3ε stalk-Fc(knob)-Avi/CD3δ stalk-Fc(hole) (human)
# T1 construct: Heterodimer of CD3 delta and CD3 epsilon ectodomains fused to a human Fc domain with knob-into-hole modifications and C-terminal Avi-tag; also called human CD3ε/δ; CD3ε/δ
# Experiment: SPR single cycle kinetics (Biacore T200, 25°C); TCB captured by anti-PG antibody on CM3 chip, human CD3ε/δ as analyte
# Description: (§1) The binding kinetics of the PLAP TCB molecules generated in Example 17 were characterized by the single cycle kinetic (SSK) assay. For this assay, again the SPR Biacore T200 was used. The immobilization was performed at 25° C. with HBS-N pH 7.4 as a running buffer (Cytiva #BR100670). The anti-PG antibody (see Example 3) was immobilized by amine coupling (using amine coupling kit, Cytiva #BR100050) at a density of >5000 RU on a CM3 Chip (Cytiva #29104990). The anti-PG antibody stock solution was diluted to a concentration of 25 μg/mL in a 10 mM sodium acetate buffer of pH 5.0 (Cytiva #BR100351). After the immobilization the analysis was performed at 25° C., and PBS-P+(Cytiva #28995084) was used as a running and a dilution buffer. The 3 nM solutions of TCB molecule samples in PBS-P+ were captured with anti-PG antibody on a CM3 sensor chip.
# (§2) The derived kinetic rate constants and corresponding affinity values (equilibrium dissociation constant KD) are summarized in Table 26 for the CD3 binder and in Table 27 for the PLAP binder. The data were analyzed with the Biacore T200 Evaluation and Excel software.
Binder,Kd [nM],koff [s⁻¹],kon [M⁻¹ s⁻¹]
B1,6.3,0.0017,269000
B2,6.3,0.00167,267000
B3,2.8,0.0136,4.79e+06
B4,5.7,0.00167,292000

# Molecular target: T1, Human CD3ε stalk-Fc(knob)-Avi/CD3δ …
# Experiment: SPR RAC assay (Biacore T200, 25°C); TCB captured by anti-PG antibody on CM3 chip, 200 nM human CD3ε/δ injected after 100 nM human PLAP
# Description: (§3) SPR experiments were performed on a Biacore T200 instrument (GE Healthcare). For the immobilization. HBS-N pH 7.4 was used as a running buffer (Cytiva #BR100670). Anti-PG antibody (see Example 3) was immobilized by amine coupling (using amine coupling kit, Cytiva #BR100050) at a density of >6000 RU on a CM3 Chip (Cytiva #29104990). The anti-PG antibody stock solution was diluted to a concentration of 25 μg/mL in a 10 mM sodium acetate buffer of pH 5.0 (Cytiva #BR100351). After the immobilization the analysis was performed at 25° C., and using PBS-P+ (Cytiva #28995084) as a running and a dilution buffer. The 5 nM solutions of TCB molecule samples in PBS-P+ were captured for 30 sec at a flow rate 5 μl/min. Then a 100 nM solution of human PLAP was injected for 90 sec association time and 30 sec dissociation time at a flow rate of 8 μl/min. Thereafter, a 200 nM solution of human CD3ε/δ (see Example 3, SEQ ID NOs 24 and 25) was injected for 90 sec association time and 30 sec dissociation time at a flow rate of 8 μl/min. The regeneration of the surface followed by two 60 sec regeneration steps with a 10 mM NaOH solution. The data were analyzed with the Biacore T200 Evaluation and Excel software. For the calculation of relative active concentration (RAC) the binding report point (BRP) was used. To calculate the RAC, the target and antibody concentrations were referenced to the unstressed sample (−80° C.) as 100% comparison. For the normalization of the protein concentration, reference was made to anti-PG antibody capturing (RAC values).
Binder,"RAC [%] CD3 binding, stress A [%]","RAC [%] CD3 binding, stress B [%]","RAC [%] CD3 binding, unstressed [%]"
B1,96,81,100
B2,97,82,100
B3,98,95,100
B4,97,78,100

# Molecular target: T2, Human PLAP (soluble, as injected in SPR) (human, UniProt P05187 23-506)
# T2 construct: also called PLAP target
# T2 sequence (P05187 23-506 limits assumed): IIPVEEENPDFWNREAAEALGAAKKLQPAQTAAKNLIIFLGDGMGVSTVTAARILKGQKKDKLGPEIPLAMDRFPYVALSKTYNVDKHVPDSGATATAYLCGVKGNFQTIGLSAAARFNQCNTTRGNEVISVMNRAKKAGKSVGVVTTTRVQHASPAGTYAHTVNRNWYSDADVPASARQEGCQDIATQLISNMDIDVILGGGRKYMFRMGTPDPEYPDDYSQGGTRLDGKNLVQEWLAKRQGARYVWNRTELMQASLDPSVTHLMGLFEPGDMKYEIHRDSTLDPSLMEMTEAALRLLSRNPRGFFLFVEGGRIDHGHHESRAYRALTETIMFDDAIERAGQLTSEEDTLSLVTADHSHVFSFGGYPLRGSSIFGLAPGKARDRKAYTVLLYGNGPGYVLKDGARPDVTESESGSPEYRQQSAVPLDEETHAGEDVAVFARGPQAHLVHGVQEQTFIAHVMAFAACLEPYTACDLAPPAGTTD
# Experiment: SPR RAC assay (Biacore T200, 25°C); TCB captured by anti-PG antibody on CM3 chip, 100 nM human PLAP injected
# Description: as §3
Binder,"RAC [%] PLAP binding, stress A [%]","RAC [%] PLAP binding, stress B [%]","RAC [%] PLAP binding, unstressed [%]"
B1,100,102,100
B2,99,100,100
B3,100,101,100
B4,99,103,100

# Molecular target: T2, Human PLAP (soluble, as injected in SPR)
# Experiment: SPR single cycle kinetics (Biacore T200, 25°C); TCB captured by anti-PG antibody on CM3 chip, human PLAP as analyte
# Description: as §1, §2
Binder,Kd [nM],koff [s⁻¹],kon [M⁻¹ s⁻¹]
B1,0.0181,4.45e-05,2.46e+06
B2,0.009,3.87e-05,4.32e+06
B3,0.0097,3.99e-05,4.12e+06
B4,0.0496,8.91e-05,1.8e+06
